Test results taken from patent US20080139472A1, “UPREGULATING BDNF LEVELS TO MITIGATE MENTAL RETARDATION” (THE REGENTS OF THE UNIVERSITY OF CALIFORNIA, priority 2006, published 2008).
“Also recorded” adds a separate entry of the source.

B1: BDNF: purified recombinant (mature) BDNF, catalog #GF029; Millipore; single 14 kDa band under denaturing conditions (protein, UniProt P23560 19-247, looked up)
Neurotrophic factor BDNF …: APMKEANIRGQGGLAYPGVRTHGTLESVNGPKAGSRGLTSLADTFEHVIEELLDEDQKVRPNEENNKDADLYTSRVMLSSQVPLEPPLLFLLEEYKNYLDAANMSMRVRRHSDPARRGELSVCDSISEWVTAADKKTAVDMSGGTVTVLEKVPVSKGQLKQYFYETKCNPMGYTKEGCRGIDKRHWNSQCRTTQSYVRALTMDSKKRIGWRFIRIDTSCVCTLTIKRGR
B2: heat-inactivated BDNF: BDNF heat-inactivated by boiling for 5 min immediately before use; specificity control (protein, UniProt P23560 19-247, looked up)
Neurotrophic factor BDNF …: APMKEANIRGQGGLAYPGVRTHGTLESVNGPKAGSRGLTSLADTFEHVIEELLDEDQKVRPNEENNKDADLYTSRVMLSSQVPLEPPLLFLLEEYKNYLDAANMSMRVRRHSDPARRGELSVCDSISEWVTAADKKTAVDMSGGTVTVLEKVPVSKGQLKQYFYETKCNPMGYTKEGCRGIDKRHWNSQCRTTQSYVRALTMDSKKRIGWRFIRIDTSCVCTLTIKRGR
modifications: heat-inactivated
notes: specificity control

Tests used:
Type in all cases: cell-based, mouse
NMDA receptor = NMDA receptor contribution to theta burst responses in hippocampal slices, estimated with APV
Experimental: (§1) Transverse hippocampal slices (350 m) through the mid-septotemporal hippocampus were prepared with a vibratome (VT 1000 S; Leica, Bannockbum, Ill.) in ice-cold artificial CSF [ACSF; containing (in mM) 124 NaCl, 3 KCl, 1.25 KH2PO4, 3.4 CaCl2, 2.5 MgSO4, 26 NaHCO3, and 10 dextrose, pH 7.35) from young (2-3 months old) adult Fmr1-KO and wild-type (WT) mice (unless otherwise specified, chemicals were from Sigma, St. Louis, Mo.). […] Related to this, pharmacological results obtained with such slices accurately predict effects obtained with chronic recordings or biochemical assays from behaving animals (Staubli et al., 1994; Lauterbom et al., 2003), a point that is of importance to those aspects of the present work concerned with therapeutic strategies. All experiments were initiated between 9:00 and 11:00 A.M., and slices from Fmr1-KO and WT animals were randomized across two chambers and run simultaneously. Slices were maintained at 31±1° C. in an interface recording chamber with the slice surface exposed to warm, humidified 95% O2/5% CO2 and continuous ACSF perfused at a rate of 60-70 ml/hr. Slices equilibrated to the chamber for at least 1 h before recordings were initiated. […] Evoked responses were digitized (NacGather 2.0; Theta Burst, Irvine, Calif.) and analyzed for amplitude and fall slope; data are presented as a percentage of baseline. Responses to individual theta bursts were analyzed to determine the burst area; to evaluate treatment effects on theta train facilitation, responses to each burst in the theta train are presented as a percentage change from the area of the initial burst response. […] Statistical significance was assessed using either two-way repeated-measures ANOVA to compare values that were stable over time or Mann-Whitney Utest to compare groups expressing different decay rates (i.e., values not stable over time); statistical analyses were performed using SPSS version 15.0 (SPSS, Chicago, Ill.) Variance for physiology experiments is expressed as SEM.

[1] = tested on: hippocampal slices from Fmr1-KO mice; experiment: LTP (fEPSP slope) after theta burst stimulation in field CA1 of hippocampal slices from Fmr1-KO mice; settings: for effect on TBS-induced increase in fEPSP slope (30-40 min post-TBS): compared with ACSF alone
Experimental: Transverse hippocampal slices (350 m) through the mid-septotemporal hippocampus were prepared with a vibratome (VT 1000 S; Leica, Bannockbum, Ill.) in ice-cold artificial CSF [ACSF; containing (in mM) 124 NaCl, 3 KCl, 1.25 KH2PO4, 3.4 CaCl2, 2.5 MgSO4, 26 NaHCO3, and 10 dextrose, pH 7.35) from young (2-3 months old) adult Fmr1-KO and wild-type (WT) mice (unless otherwise specified, chemicals were from Sigma, St. Louis, Mo.). […] Related to this, pharmacological results obtained with such slices accurately predict effects obtained with chronic recordings or biochemical assays from behaving animals (Staubli et al., 1994; Lauterbom et al., 2003), a point that is of importance to those aspects of the present work concerned with therapeutic strategies. All experiments were initiated between 9:00 and 11:00 A.M., and slices from Fmr1-KO and WT animals were randomized across two chambers and run simultaneously. Slices were maintained at 31±1° C. in an interface recording chamber with the slice surface exposed to warm, humidified 95% O2/5% CO2 and continuous ACSF perfused at a rate of 60-70 ml/hr. Slices equilibrated to the chamber for at least 1 h before recordings were initiated. A single glass electrode (2 M NaCl) was placed within the mid proximodistal CA1b stratum radiatum and was used to record field EPSPs (fEPSPs) from the apical dendrites of CA1 pyramidal cells. Orthodromic stimulation was delivered at two sites (CA1a and CA1c) in the apical Schaffer collateral-commissural projections to provide convergent activation of CA1b pyramidal cells. Pulses were administered in an alternating manner to the two electrodes at 0.05 Hz by using a current that elicited a 50% maximal response. […] Input-output and paired-pulse facilitation assays were performed as described previously (Rex et al., 2005). Synaptic potentiation was induced with a train of 5 or 10 theta bursts (each containing four pulses at 100 Hz, with an interburst interval of 200 ms) Carson et al., 1986; Kramar and Lynch, 2003; Rex et al., 2005). Evoked responses were digitized (NacGather 2.0; Theta Burst, Irvine, Calif.) and analyzed for amplitude and fall slope; data are presented as a percentage of baseline. Responses to individual theta bursts were analyzed to determine the burst area; to evaluate treatment effects on theta train facilitation, responses to each burst in the theta train are presented as a percentage change from the area of the initial burst response. Unless otherwise stated, group size values presented in the figures represent number of slices tested. Generally two to three slices were tested from a given mouse, and no fewer than three mice were used in any group; for statistical analyses, each slice was considered an individual n. Statistical significance was assessed using either two-way repeated-measures ANOVA to compare values that were stable over time or Mann-Whitney Utest to compare groups expressing different decay rates (i.e., values not stable over time); statistical analyses were performed using SPSS version 15.0 (SPSS, Chicago, Ill.) Variance for physiology experiments is expressed as SEM.
A recirculating perfusion system (oxygenated and heated as above) with a peristaltic pump (60 ml/hr; MasterFlex C/L; Cole-Parmer, Vernon Hills, Ill.) was used for experiments in which purified BDNF (catalog #GF029; Millipore, Temecula, Calif.) was administered to slices. The purity of the recombinant (mature) BDNF was confirmed using Western blot analyses: a single 14 kDa band was observed under denaturing conditions. Slices received BDNF for 30 min to 1 h before physiological recording. BDNF stock was prepared in ddH2O at a concentration of 50 ng/ml (this is equivalent to 1.85 nM based on the 27 kDa size of the dimer) and stored at −20° C. Control slices from the same animals received ACSF alone in parallel on a second recirculating interface chamber. […]

[2] = tested on: hippocampal slices from WT mice; experiment: LTP (fEPSP slope) after theta burst stimulation in field CA1 of hippocampal slices from wild-type mice
Experimental: as §1, with “SEM. […]” for “SEM.”

[3] = WT slices, pair of theta bursts, mean of 6 slices
[4] = Fmr1-KO slices, five theta bursts

Molecule	effect of APV on theta burst responses (NMDA receptor; Fmr1-KO slices, pair of theta bursts with and without APV)	effect of APV on the first burst response (NMDA receptor; [3])	effect of APV on the second burst response (NMDA receptor; [3])	LTP above baseline ([1]; Fmr1-KO slices treated with BDNF 15 ng/ml) [%]	slope of the fEPSP enhanced above baseline ([1]; Fmr1-KO slices, BDNF 2 nM from 30 min before theta burst stimulation, five theta bursts, 40-50 min post-TBS) [%]	degree of LTP (fEPSP slope, percent above baseline) ([1]; Fmr1-KO slices, BDNF 50 ng/ml bath-applied, five theta bursts, minutes 30-40 post-TBS, mean ±SEM) [%]	effect on input-output curves / baseline transmission (fEPSP amplitude) ([1]; Fmr1-KO slices, BDNF 50 ng/ml vs ACSF alone or heat-inactivated BDNF)	effect on facilitation of burst responses during theta trains ([1]; Fmr1-KO slices, BDNF 50 ng/ml vs ACSF and heat-inactivated BDNF)	restoration of LTP ([1]; Fmr1-KO slices, brief infusion of 50 ng/ml BDNF, threshold theta burst stimulation)	effect on TBS-induced increase in fEPSP slope (30-40 min post-TBS) [1, 4]	potentiation (fEPSP slope, percent above baseline) ([2]; BDNF 50 ng/ml bath-applied, five theta bursts, minutes 30-40 post-TBS, mean ±SEM) [%]	effect on facilitation of burst responses during theta trains ([2]; BDNF 50 ng/ml vs ACSF)	effect on input-output curves ([2]; BDNF 50 ng/ml vs ACSF alone)
N[C@@H](CCCP(=O)(O)O)C(=O)O [APV]	marked, and reversible, depression	slight reduction in the half-width of the fourth fEPSP	reduced the size of fEPSPs 2 through 4										
B1				> 40	44	42.1±8.6	no effect; also recorded: did not alter	did not measurably affect	fully restored LTP	enhanced	51.3±8.6	did not measurably affect	did not alter
B2										no effect			
